Substrate in data set [1]: COc1c(CC=C(C)C)c(O)cc(O)c1-c1oc2cc(O)ccc2c1C
As to conditions: Homo sapiens; 10 uM.
Description: Competitive inhibition of human recombinant PTP1B at 10 uM by Lineweaver-Burke plot analysis

Substrate in data set [2]: COc1c(CC=C(C)C)c(O)cc(O)c1-c1oc2cc(O)ccc2c1C
As to conditions: Homo sapiens; 30 uM.
Description: Competitive inhibition of human recombinant PTP1B at 30 uM by Lineweaver-Burke plot analysis

Substrate in data set [3]: COc1c(CC=C(C)C)c(O)cc(O)c1-c1oc2cc(O)ccc2c1C
Description: Competitive inhibition of human recombinant PTP1B at 20 uM by Lineweaver-Burke plot analysis
The note with it: Homo sapiens; 20 uM.

B1: Tyrosine-protein phosphatase non-receptor type 1 (Homo sapiens), P18031 (protein)
chain: MEMEKEFEQIDKSGSWAAIYQDIRHEASDFPCRVAKLPKNKNRNRYRDVSPFDHSRIKLHQEDNDYINASLIKMEEAQRSYILTQGPLPNTCGHFWEMVWEQKSRGVVMLNRVMEKGSLKCAQYWPQKEEKEMIFEDTNLKLTLISEDIKSYYTVRQLELENLTTQETREILHFHYTTWPDFGVPESPASFLNFLFKVRESGSLSPEHGPVVVHCSAGIGRSGTFCLADTCLLLMDKRKDPSSVDIKKVLLEMRKFRMGLIQTADQLRFSYLAVIEGAKFIMGDSSVQDQWKELSHEDLEPPPEHIPPPPRPPKRILEPHNGKCREFFPNHQWVKEETQEDKDCPIKEEKGSPLNAAPYGIESMSQDTEVRSRVVGGSLRGAQAASPAKGEPSLPEKDEDHALSYWKPFLVNMCVATVLTAGAYLCYRFLFNSNT
One may read the Km as the substrate concentration at which the rate is half of its maximum. For B1, the Km was determined as 3.5 µM in data set [1], 5.5 µM in data set [2] and 4.2 µM in data set [3].
